Assay results reported in patent publication US20050064507A1, “Determining kinase specificity” (priority 2003, published 2005).

Experiments:
Assay type in all cases: biochemical
PKC-zeta = biological target: T1, PKC-zeta (Homo sapiens, UniProt Q05513); experiment: In vitro kinase assay: peptide phosphorylation by PKC-zeta; settings: for PKC-zeta phosphorylation: normalized to best substrate
T1 construct: purchased Calbiochem
T1 sequence (Q05513 1-592): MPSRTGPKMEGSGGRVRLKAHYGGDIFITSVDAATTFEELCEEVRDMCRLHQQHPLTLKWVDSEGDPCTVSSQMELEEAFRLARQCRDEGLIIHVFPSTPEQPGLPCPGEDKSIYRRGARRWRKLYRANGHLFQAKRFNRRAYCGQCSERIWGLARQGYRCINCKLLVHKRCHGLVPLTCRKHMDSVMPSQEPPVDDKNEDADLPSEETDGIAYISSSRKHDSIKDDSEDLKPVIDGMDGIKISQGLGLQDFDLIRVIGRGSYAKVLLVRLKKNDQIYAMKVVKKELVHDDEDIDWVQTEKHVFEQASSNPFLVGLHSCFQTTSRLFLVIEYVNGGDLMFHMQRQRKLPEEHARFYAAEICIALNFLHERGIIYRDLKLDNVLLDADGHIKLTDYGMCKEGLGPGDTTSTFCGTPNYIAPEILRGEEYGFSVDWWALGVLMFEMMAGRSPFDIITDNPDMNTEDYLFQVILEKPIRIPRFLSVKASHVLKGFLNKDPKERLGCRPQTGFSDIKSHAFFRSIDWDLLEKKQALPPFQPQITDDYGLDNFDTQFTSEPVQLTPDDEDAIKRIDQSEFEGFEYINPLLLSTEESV
Experimental: (§1) Catalytically active preparations of the kinases of interest were either purchased or prepared. Purchased and tested active kinase preparations including the following: PKC-alpha, PKC-delta, PKC-epsilon, PKC-zeta, PKC-mu, PKA, PKG from Calbiochem, ROK alpha/ROCK-II, active from Upstate Biotechnology, and AKT1 from Panvera.
(§2) The conditions of the kinase assay and the amount of active kinase used varied with the kinase and with the accuracy needed. For a typical experiment, 5-20 ng of kinase was used per well and each peptide pool was assayed in duplicate wells. Note that the absolute amount of kinase used was not usually a critical parameter, because the desired information related to specificity of the kinase not its absolute activity, and robustness of the assay depends on comparisons of the same amount of kinase on different peptides. The combination of kinase concentration and assay duration was modified to assure that the stoichiometry of peptide phosphorylation never exceeded 5%. The choice of kinase buffer depended on the kinase being analyzed. For studies of PKC, 100 mM HEPES, 0.05% Triton-X100, 1 mM CaCl2, 20 mM MgCl2, 0.2 mg/ml phosphatidyl serine (Avanti Polar Lipids), PMA 100 ng/ml was typically used. The lipid stock was prepared by transferring 3 mg phosphatidyl serine into iced mixture of 450 μl water plus 50 μl of 10% Triton-X100, sonicating 10 times on ice for 1 sec each.
(§3) The kinase reaction mixture was assembled by sequential addition to a tube held on ice of: 5 μl peptide (100 μM for final concentration of 10 μM), 15 μl of kinase (typically 5 ng/well, in appropriate kinase buffer), 30 μl of ATP (1 uCi/well of ^32P-gamma ATP in a stock of 167 μM cold ATP in the kinase buffer; for final concentration for 100 μM ATP). The mixture was rapidly warmed to desired reaction temperature (30° C. for PKC) and incubated for the desired duration (usually 10 minutes). The kinase assay was terminated by transfer to 4° C. water batch, and rapid addition of an equal volume (50 μl) of stop solution [0.1M ATP+0.1M EDTA in water, pH 8].
(§4) The peptides were then captured from the reaction mixture by transfer to a Reacti-Bind Streptavidin High Binding Capacity Coated Plates (HBC) (Pierce Biotechnology) as follows. The HBC plates were pre-rinsed three times with PBS/Tween PBS/Tween20 0.05% (PBS/Tween). Part of all of the reaction mixture was then transferred wells of a HBC plate pre-filled with 90 μl of phosphate-buffered saline (PBS); typically each aliquots of each phosphorylation reaction were transferred to duplicate HBC plates to assure accuracy by additional replication
(§5) For kinase assays done at the standard peptide concentration of 10 μM, the peptide concentration in the reaction mixture becomes 5 μM after addition of the stop solution; consequently 10 μl of the reaction (50 pMoles of peptide) was transferred to the HBC plate. More generally, the amount of reaction mixture transferred was estimated to be about 50 pMoles of peptide. […] The HBC plates were incubated for 0.5 to 1.5 hr at room temperature for complete binding of biotinylated peptides to plate-bound streptavidin. The HBC plates were then washed extensively with PBS/Tween. Five washes were done routinely and additional wash steps were added if the wash solution removed from the plate had measurable radioactivity as detected using a Geiger counter. This step is essential to obtaining a good the signal to noise ratio because the fraction of radioactivity incorporated in the peptides was a tiny fraction of the total in the reaction mixture. The wells were air-dried. A volume of 40-50 μl of microScint-20 (Packard Instruments) was added to each well. The plates were covered with stick-on film sheet. Radioactive emissions were measured in a TopCount NXT Microplate Scintillation and Luminescence Counter (Packard Instruments). Typically samples were counted for 5 minutes (or more) to improve the signal to noise ratio when counts were low. […]

PKC-epsilon = biological target: T2, PKC-epsilon (Homo sapiens, UniProt Q02156); experiment: In vitro kinase assay: peptide phosphorylation by PKC-epsilon; settings: for PKC-epsilon phosphorylation: normalized to best substrate
T2 construct: purchased Calbiochem
T2 sequence (Q02156 1-737): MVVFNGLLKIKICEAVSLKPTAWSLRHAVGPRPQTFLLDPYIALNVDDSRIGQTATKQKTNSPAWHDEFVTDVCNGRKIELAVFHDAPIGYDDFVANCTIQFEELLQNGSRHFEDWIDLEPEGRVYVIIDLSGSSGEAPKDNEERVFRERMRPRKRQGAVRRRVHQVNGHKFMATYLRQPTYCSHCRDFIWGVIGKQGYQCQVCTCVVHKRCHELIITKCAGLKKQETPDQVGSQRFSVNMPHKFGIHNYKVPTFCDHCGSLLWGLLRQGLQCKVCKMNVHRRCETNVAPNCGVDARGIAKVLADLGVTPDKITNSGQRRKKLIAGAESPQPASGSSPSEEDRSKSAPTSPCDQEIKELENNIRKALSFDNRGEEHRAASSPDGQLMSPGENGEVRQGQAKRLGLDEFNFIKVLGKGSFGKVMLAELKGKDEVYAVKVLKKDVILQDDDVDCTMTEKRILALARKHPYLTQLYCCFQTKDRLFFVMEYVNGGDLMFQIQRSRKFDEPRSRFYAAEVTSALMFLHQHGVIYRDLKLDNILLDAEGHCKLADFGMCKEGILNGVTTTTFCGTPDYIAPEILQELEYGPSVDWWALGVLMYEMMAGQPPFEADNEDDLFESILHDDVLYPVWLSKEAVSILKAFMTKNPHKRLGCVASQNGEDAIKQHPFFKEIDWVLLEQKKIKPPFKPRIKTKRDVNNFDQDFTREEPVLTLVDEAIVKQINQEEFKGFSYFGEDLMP
Experimental: as §1, §2, §3, §4, §5

PKC-alpha = biological target: T3, PKC-alpha (Homo sapiens, UniProt P17252); experiment: In vitro kinase assay: peptide phosphorylation by PKC-alpha; settings: for PKC alpha phosphorylation: normalized to best substrate
T3 construct: purchased Calbiochem
Experimental: as §1, §2, §3, §4, §5

Substance	PKC-zeta phosphorylation (PKC-zeta)	PKC-epsilon phosphorylation (PKC-epsilon)	PKC alpha phosphorylation (PKC-alpha)	phosphorylation by PKC zeta (PKC-zeta; peptide concentration 1 uM)	phosphorylation by PKC zeta (PKC-zeta; peptide concentration 10 uM)	phosphorylation by PKC epsilon (PKC-epsilon; peptide concentration 1 uM)	phosphorylation by PKC alpha (PKC-alpha; peptide concentration 1 uM)	phosphorylation by PKC alpha (PKC-alpha; peptide concentration 10 uM)
76 (HVRRRRGTFKRSKLRARD) [compound 76]	41%	100%	62%					
77 (KKKKRASFKRKSSKKG) [compound 77]	60%	71%	100%					
78 (KFARKSTRRSIRLPE) [compound 78]	100%	84%	69%					
79 (NRKKKRTSFKRKA) [compound 79]	18%	92%	50%					
80 (KKKKKRFSFKKSFKL) [compound 80]	16%	71%	65%					
82 (PRLIRRGSKKRPAR) [compound 82]	38%	72%	61%					
83 (RKIPKRPGSVHRTPSRQ) [compound 83]	4%	47%	41%					
84 (QKKSRLRRRASQLKI) [compound 84]	19%	52%	39%					
85 (RFARKGSLRQKNV) [compound 85]	56%	86%	42%					
86 (RQRKRKLSFRRRTDKD) [compound 86]	28%	63%	47%					
89 (EYLERRASRRRAV) [compound 89]	14%	45%	37%					
90 (AQIVKRASLKRGKQ) [compound 90]	5%	49%	40%					
92 (DGQKRKKSLRKKLD) [compound 92]	2%	51%	36%					
93 (AARKKRISVKKKQEQ) [compound 93]	1%	40%	34%					
94 (KLAVGRHSFSRRSGV) [compound 94]	10%	13%	34%					
95 (KKKFRTPSFLKKSKK) [compound 95]	5%	31%	34%					
96 (RGFLRSASLGRRASFHLE) [compound 96]	22%	41%	40%					

Substance	PKC-zeta phosphorylation (PKC-zeta)	PKC-epsilon phosphorylation (PKC-epsilon)	PKC alpha phosphorylation (PKC-alpha)	phosphorylation by PKC zeta (PKC-zeta; peptide concentration 1 uM)	phosphorylation by PKC zeta (PKC-zeta; peptide concentration 10 uM)	phosphorylation by PKC epsilon (PKC-epsilon; peptide concentration 1 uM)	phosphorylation by PKC alpha (PKC-alpha; peptide concentration 1 uM)	phosphorylation by PKC alpha (PKC-alpha; peptide concentration 10 uM)
99 (AGWRKKTSFRKPKED) [compound 99]	10%	27%	37%					
100 (WKGKRRSKARKKRK) [compound 100]	8%	13%	14%					
101 (GAPPRRSSIRNAH) [compound 101]	3%	19%	32%					
102 (AGSFKRNSIKKIV) [compound 102]	2%	14%	35%					
103 (LLKKRDSFRTPRDSKLE) [compound 103]	8%	21%	32%					
104 (EKIKRSSLKKVDSLKK) [compound 104]	3%	17%	34%					
105 (ALRRPSLRREADD) [compound 105]	4%	29%	26%					
106 (EILSRRPSYRKILND) [compound 106]	15%	31%	23%					
107 (QKRHARVTVKYDRRE) [compound 107]	1%	7%	18%					
108 (KATTKKRTLRKNDRK) [compound 108]	1%	8%	19%					
109 (KEVVRTDSLKGRRGR) [compound 109]	2%	26%	21%					
110 (EGGDRRASGRRK) [compound 110]	3%	4%	30%					
111 (KKKRFSFKKSFKLSGFSFKK) [compound 111]	9%	12%	11%					
112 (KRPGKKGSNKRPGKR) [compound 112]	1%	11%	10%					
113 (GENVLKKSMKSRVKG) [compound 113]	1%	10%	16%					
114 (KKKKRASFKRKSSKKG) [compound 114]				45	51	100	100	100
